Article PMC10540216, “Activity Guided Azide-methyllysine Photo-trapping for Substrate Profiling of Lysine Demethylases” (Journal of the American Chemical Society, 2023)

Tested on: KDM4A-I71AzF
Assay: CASI: photo-crosslinking with HEK293T cell extracts, StrepTactin enrichment and LC-MS/MS proteomics;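 note: lysates from HEK293T cells pretreated with a KDM4 inhibitor to raise proteome methylation, affinity-purified after ±UV, gel-resolved, trypsin-digested, with exclusive unique peptides per protein averaged per condition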
Type: binding, human
Settings: sheet "Final results but with 0.01"

Row | Molecule | Fold change (+UV/-UV)
1 | SYYM_HUMAN (protein, UniProt Q9Y2Z4 17-477, looked up) Tyrosine--tRNA ligase, …: TLNLSVLLPLGLRKAHSGAQGLLAAQKARGLFKDFFPETGTKIELPELFDRGTASFPQTIYCGFDPTADSLHVGHLLALLGLFHLQRAGHNVIALVGGATARLGDPSGRTKEREALETERVRANARALRLGLEALAANHQQLFTDGRSWGSFTVLDNSAWYQKQHLVDFLAAVGGHFRMGTLLSRQSVQLRLKSPEGMSLAEFFYQVLQAYDFYYLFQRYGCRVQLGGSDQLGNIMSGYEFINKLTGEDVFGITVPLITSTTGAKLGKSAGNAVWLNRDKTSPFELYQFFVRQPDDSVERYLKLFTFLPLPEIDHIMQLHVKEPERRGPQKRLAAEVTKLVHGREGLDSAKRCTQALYHSSIDALEVMSDQELKELFKEAPFSEFFLDPGTSVLDTCRKANAIPDGPRGYRMITEGGVSINHQQVTNPESVLIVGQHILKNGLSLLKIGKRNFYIIKWLQL | 2
2 | RAD50_HUMAN (protein, UniProt Q92878 1-1312, looked up) DNA repair protein RAD50: MSRIEKMSILGVRSFGIEDKDKQIITFFSPLTILVGPNGAGKTTIIECLKYICTGDFPPGTKGNTFVHDPKVAQETDVRAQIRLQFRDVNGELIAVQRSMVCTQKSKKTEFKTLEGVITRTKHGEKVSLSSKCAEIDREMISSLGVSKAVLNNVIFCHQEDSNWPLSEGKALKQKFDEIFSATRYIKALETLRQVRQTQGQKVKEYQMELKYLKQYKEKACEIRDQITSKEAQLTSSKEIVKSYENELDPLKNRLKEIEHNLSKIMKLDNEIKALDSRKKQMEKDNSELEEKMEKVFQGTDEQLNDLYHNHQRTVREKERKLVDCHRELEKLNKESRLLNQEKSELLVEQGRLQLQADRHQEHIRARDSLIQSLATQLELDGFERGPFSERQIKNFHKLVRERQEGEAKTANQLMNDFAEKETLKQKQIDEIRDKKTGLGRIIELKSEILSKKQNELKNVKYELQQLEGSSDRILELDQELIKAERELSKAEKNSNVETLKMEVISLQNEKADLDRTLRKLDQEMEQLNHHTTTRTQMEMLTKDKADKDEQIRKIKSRHSDELTSLLGYFPNKKQLEDWLHSKSKEINQTRDRLAKLNKELASSEQNKNHINNELKRKEEQLSSYEDKLFDVCGSQDFESDLDRLKEEIEKSSKQRAMLAGATAVYSQFITQLTDENQSCCPVCQRVFQTEAELQEVISDLQSKLRLAPDKLKSTESELKKKEKRRDEMLGLVPMRQSIIDLKEKEIPELRNKLQNVNRDIQRLKNDIEEQETLLGTIMPEEESAKVCLTDVTIMERFQMELKDVERKIAQQAAKLQGIDLDRTVQQVNQEKQEKQHKLDTVSSKIELNRKLIQDQQEQIQHLKSTTNELKSEKLQISTNLQRRQQLEEQTVELSTEVQSLYREIKDAKEQVSPLETTLEKFQQEKEELINKKNTSNKIAQDKLNDIKEKVKNIHGYMKDIENYIQDGKDDYKKQKETELNKVIAQLSECEKHKEKINEDMRLMRQDIDTQKIQERWLQDNLTLRKRNEELKEVEEERKQHLKEMGQMQVLQMKSEHQKLEENIDNIKRNHNLALGRQKGYEEEIIHFKKELREPQFRDAEEKYREMMIVMRTTELVNKDLDIYYKTLDQAIMKFHSMKMEEINKIIRDLWRSTYRGQDIEYIEIRSDADENVSASDKRRNYNYRVVMLKGDTALDMRGRCSAGQKVLASLIIRLALAETFCLNCGIIALDEPTTNLDRENIESLAHALVEIIKSRSQQRNFQLLVITHDEDFVELLGRSEYVEKFYRIKKNIDQCSEIVKCSVSSLGFNVH | 200
3 | TPP1_HUMAN (protein, UniProt O14773 196-563, looked up) Tripeptidyl-peptidase 1: LHLGVTPSVIRKRYNLTSQDVGSGTSNNSQACAQFLEQYFHDSDLAQFMRLFGGNFAHQASVARVVGQQGRGRAGIEASLDVQYLMSAGANISTWVYSSPGRHEGQEPFLQWLMLLSNESALPHVHTVSYGDDEDSLSSAYIQRVNTELMKAAARGLTLLFASGDSGAGCWSVSGRHQFRPTFPASSPYVTTVGGTSFQEPFLITNEIVDYISGGGFSNVFPRPSYQEEAVTKFLSSSPHLPPSSYFNASGRAYPDVAALSDGYWVVSNRVPIPWVSGTSASTPVFGGILSLINEHRILSGRPPLGFLNPRLYQQHGAGLFDVTRGCHESCLDEEVEGQGFCSGPGWDPVTGWGTPNFPALLKTLLNP | 0
4 | IDHP_HUMAN (protein, UniProt P48735 40-452, looked up) Isocitrate dehydrogenase …: ADKRIKVAKPVVEMDGDEMTRIIWQFIKEKLILPHVDIQLKYFDLGLPNRDQTDDQVTIDSALATQKYSVAVKCATITPDEARVEEFKLKKMWKSPNGTIRNILGGTVFREPIICKNIPRLVPGWTKPITIGRHAHGDQYKATDFVADRAGTFKMVFTPKDGSGVKEWEVYNFPAGGVGMGMYNTDESISGFAHSCFQYAIQKKWPLYMSTKNTILKAYDGRFKDIFQEIFDKHYKTDFDKNKIWYEHRLIDDMVAQVLKSSGGFVWACKNYDGDVQSDILAQGFGSLGLMTSVLVCPDGKTIEAEAAHGTVTRHYREHQKGRPTSTNPIASIFAWTRGLEHRGKLDGNQDLIRFAQMLEKVCVETVESGAMTKDLAGCIHGLSNVKLNEHFLNTTDFLDTIKSNLDRALGRQ | 0.4
5 | MCCB_HUMAN (protein, UniProt Q9HCC0 23-563, looked up) Methylcrotonoyl-CoA …: YHGDSVASLGTQPDLGSALYQENYKQMKALVNQLHERVEHIKLGGGEKARALHISRGKLLPRERIDNLIDPGSPFLELSQFAGYQLYDNEEVPGGGIITGIGRVSGVECMIIANDATVKGGAYYPVTVKKQLRAQEIAMQNRLPCIYLVDSGGAYLPRQADVFPDRDHFGRTFYNQAIMSSKNIAQIAVVMGSCTAGGAYVPAMADENIIVRKQGTIFLAGPPLVKAATGEEVSAEDLGGADLHCRKSGVSDHWALDDHHALHLTRKVVRNLNYQKKLDVTIEPSEEPLFPADELYGIVGANLKRSFDVREVIARIVDGSRFTEFKAFYGDTLVTGFARIFGYPVGIVGNNGVLFSESAKKGTHFVQLCCQRNIPLLFLQNITGFMVGREYEAEGIAKDGAKMVAAVACAQVPKITLIIGGSYGAGNYGMCGRAYSPRFLYIWPNARISVMGGEQAANVLATITKDQRAREGKQFSSADEAALKEPIIKKFEEEGNPYYSSARVWDDGIIDPADTRLVLGLSFSAALNAPIEKTDFGIFRM | 0.9333
6 | LYSC_HUMAN (protein, UniProt P61626 19-148, looked up) Lysozyme C: KVFERCELARTLKRLGMDGYRGISLANWMCLAKWESGYNTRATNYNAGDRSTDYGIFQINSRYWCNDGKTPGAVNACHLSCSALLQDNIADAVACAKRVVRDPQGIRAWVAWRNRCQNRDVRQYVQGCGV | 200
7 | TCPQ_HUMAN (protein, UniProt P50990 2-548, looked up) T-complex protein 1 subunit …: ALHVPKAPGFAQMLKEGAKHFSGLEEAVYRNIQACKELAQTTRTAYGPNGMNKMVINHLEKLFVTNDAATILRELEVQHPAAKMIVMASHMQEQEVGDGTNFVLVFAGALLELAEELLRIGLSVSEVIEGYEIACRKAHEILPNLVCCSAKNLRDIDEVSSLLRTSIMSKQYGNEVFLAKLIAQACVSIFPDSGHFNVDNIRVCKILGSGISSSSVLHGMVFKKETEGDVTSVKDAKIAVYSCPFDGMITETKGTVLIKTAEELMNFSKGEENLMDAQVKAIADTGANVVVTGGKVADMALHYANKYNIMLVRLNSKWDLRRLCKTVGATALPRLTPPVLEEMGHCDSVYLSEVGDTQVVVFKHEKEDGAISTIVLRGSTDNLMDDIERAVDDGVNTFKVLTRDKRLVPGGGATEIELAKQITSYGETCPGLEQYAIKKFAEAFEAIPRALAENSGVKANEVISKLYAVHQEGNKNVGLDIEAEVPAVKDMLEAGILDTYLGKYWAIKLATNAAVTVLRVDQIIMAKPAGGPKPPSGKKDWDDDQND | 1
8 | CBS_HUMAN (protein, UniProt P35520 1-551, looked up) Cystathionine beta-synthase: MPSETPQAEVGPTGCPHRSGPHSAKGSLEKGSPEDKEAKEPLWIRPDAPSRCTWQLGRPASESPHHHTAPAKSPKILPDILKKIGDTPMVRINKIGKKFGLKCELLAKCEFFNAGGSVKDRISLRMIEDAERDGTLKPGDTIIEPTSGNTGIGLALAAAVRGYRCIIVMPEKMSSEKVDVLRALGAEIVRTPTNARFDSPESHVGVAWRLKNEIPNSHILDQYRNASNPLAHYDTTADEILQQCDGKLDMLVASVGTGGTITGIARKLKEKCPGCRIIGVDPEGSILAEPEELNQTEQTTYEVEGIGYDFIPTVLDRTVVDKWFKSNDEEAFTFARMLIAQEGLLCGGSAGSTVAVAVKAAQELQEGQRCVVILPDSVRNYMTKFLSDRWMLQKGFLKEEDLTEKKPWWWHLRVQELGLSAPLTVLPTITCGHTIEILREKGFDQAPVVDEAGVILGMVTLGNMLSSLLAGKVQPSDQVGKVIYKQFKQIRLTDTLGRLSHILEMDHFALVVHEQIQYHSTGKSSQRQMVFGVVTAIDLLNFVAAQERDQK | 1.4
9 | GLYM_HUMAN (protein, UniProt P34897 30-504, looked up) Serine …: NAAQTQTGEANRGWTGQESLSDSDPEMWELLQREKDRQCRGLELIASENFCSRAALEALGSCLNNKYSEGYPGKRYYGGAEVVDEIELLCQRRALEAFDLDPAQWGVNVQPYSGSPANLAVYTALLQPHDRIMGLDLPDGGHLTHGYMSDVKRISATSIFFESMPYKLNPKTGLIDYNQLALTARLFRPRLIIAGTSAYARLIDYARMREVCDEVKAHLLADMAHISGLVAAKVIPSPFKHADIVTTTTHKTLRGARSGLIFYRKGVKAVDPKTGREIPYTFEDRINFAVFPSLQGGPHNHAIAAVAVALKQACTPMFREYSLQVLKNARAMADALLERGYSLVSGGTDNHLVLVDLRPKGLDGARAERVLELVSITANKNTCPGDRSAITPGGLRLGAPALTSRQFREDDFRRVVDFIDEGVNIGLEVKSKTAKLQDFKSFLLKDSETSQRLANLRQRVEQFARAFPMPGFDEH | 0.3333
10 | PUR8_HUMAN (protein, UniProt P30566 2-484, looked up) Adenylosuccinate lyase: AAGGDHGSPDSYRSPLASRYASPEMCFVFSDRYKFRTWRQLWLWLAEAEQTLGLPITDEQIQEMKSNLENIDFKMAAEEEKRLRHDVMAHVHTFGHCCPKAAGIIHLGATSCYVGDNTDLIILRNALDLLLPKLARVISRLADFAKERASLPTLGFTHFQPAQLTTVGKRCCLWIQDLCMDLQNLKRVRDDLRFRGVKGTTGTQASFLQLFEGDDHKVEQLDKMVTEKAGFKRAFIITGQTYTRKVDIEVLSVLASLGASVHKICTDIRLLANLKEMEEPFEKQQIGSSAMPYKRNPMRSERCCSLARHLMTLVMDPLQTASVQWFERTLDDSANRRICLAEAFLTADTILNTLQNISEGLVVYPKVIERRIRQELPFMATENIIMAMVKAGGSRQDCHEKIRVLSQQAASVVKQEGGDNDLIERIQVDAYFSPIHSQLDHLLDPSSFTGRASQQVQRFLEEEVYPLLKPYESVMKVKAELCL | 0.3333
